This note sets out measurements from patent publication US20140357845A1 (published 2014).

The target of test [1] is mini-H3 cluster1 + 2 + 3 + 4 + 5 + 6 + 7-N405A (influenza A virus H3N2, UniProt Q38SQ8 18-566). As to the kind of experiment: FACS. A general note: A flow cytometer gives signals particle by particle.
Test [2] concerns the target mini-H3 cluster1 + 2 + 3 + 4 + 5 + 6 + 7-N405D (influenza A virus H3N2, UniProt Q38SQ8 18-566). As to the kind of experiment: FACS.

B1: CR9114 (antibody, V domains shown)
VH: QVQLVQSGAEVKKPGSSVKVSCKSSGGTSNNYAISWVRQAPGQGLDWMGGISPIFGSTAYAQKFQGRVTISADIFSNTAYMELNSLTSEDTAVYFCARHGNYYYYSGMDVWGQGTTVTVSS
VL: SYVLTQPPAVSGTPGQRVTISCSGSDSNIGRRSVNWYQQFPGTAPKLLIYSNDQRPSVVPDRFSGSKSGTSASLAISGLQSEDEAEYYCAAWDDSLKGAVFGGGTQLTVL
Turning to B1, the binding result in test [1] and in test [2] was “no binding (tested: 5 microgram/ml)” throughout.
